Data: paper PMC8136818

Tested on: SmpO45 (Staphylococcus aureus plasmid pWBG745)
Assay: SPR
Conditions: SPR: 10 mM HEPES, 150-300 mM NaCl, 3 mM EDTA, 0.05% Tween 20, 1 uM protein (pH, temperature not given); EMSA: Li-Cor binding buffer, 0.5 ug/ul herring sperm …

| Sequence | binding signal [% Rmax] |
| --- | --- |
| CCCCATAAAATATGGGGTCATATTTCCCTT / AAGGGAAATATGACCCCATATTTTATGGGGCCTACCCTACGTCCTCCTGC [OT45.10] | 30 |
| GACACTATAGTTTATTGTGGGGTCACTTTA / TAAAGTGACCCCACAATAAACTATAGTGTCCCTACCCTACGTCCTCCTGC [OT45.3] | 30 |
| TTTATTGTGGGGTCACTTTAAATTCTTTAA / TTAAAGAATTTAAAGTGACCCCACAATAAACCTACCCTACGTCCTCCTGC [OT45.4] | 30 |
